This passage reports Apoptosis induction Activity (%) of NOS4 cells, apoptosis induction potential relative to the monomer FRP-2 and apoptosis of NOS4 cells, same method as Test Example 1, results from patent US20060217891A1.

Ends that are not written are not given here.

This assay has as its target Fas (Receptor) on the Fas-expressing human ovarian cancer cell line NOS4 (human) (UniProt P25445). Nature of the assay: cell-based or functional assay.

Sequence of Fas (Receptor) on the Fas-expressing human ovarian cancer cell line NOS4 (human) (P25445 26-335): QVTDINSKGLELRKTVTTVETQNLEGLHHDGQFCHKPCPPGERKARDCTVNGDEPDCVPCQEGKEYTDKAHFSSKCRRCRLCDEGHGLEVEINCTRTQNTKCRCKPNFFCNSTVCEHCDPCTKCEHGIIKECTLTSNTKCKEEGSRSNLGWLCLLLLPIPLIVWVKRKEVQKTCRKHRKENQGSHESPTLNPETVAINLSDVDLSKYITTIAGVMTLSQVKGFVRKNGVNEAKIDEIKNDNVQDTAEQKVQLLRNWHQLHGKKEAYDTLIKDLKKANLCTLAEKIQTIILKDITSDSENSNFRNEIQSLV

B1: (FLLP-1)4-MAP8 (four WEWT peptides bound to MAP-8) (peptide, part only)
chain: WEWT
modifications: also: tetramer: each copy bound to one of 4 branches of MAP-8, remaining four amino groups of MAP-8 protected
As to B1, the Apoptosis induction Activity (%) of NOS4 cells at 0.01 µg/ml is 7%, the Apoptosis induction Activity (%) of NOS4 cells at 0.03 µg/ml amounted to 15%, the Apoptosis induction Activity (%) of NOS4 cells at 0.1 µg/ml turned out to be 48% and the Apoptosis induction Activity (%) of NOS4 cells at 0.3 µg/ml is 67%. The Apoptosis induction Activity (%) of NOS4 cells at 1 µg/ml came to 78%.

B2: Fas complementary peptide tetramer [(FRP-2)4-MAP] (peptide, part only)
chain: EPPMTFISIHTMCH
modifications: also: tetramer: each copy bound to one of four branches of a lysine polymer (MAP)
In turn, B2 came in with an apoptosis induction potential relative to the monomer FRP-2 of 30 times and an apoptosis of NOS4 cells, same method as Test Example 1, at 5 mg/ml as printed of 50%.
